PMC4243058
pKd: −log10 of the molar value.

Molecular target: Fzd2 pTyr552 peptide (phosphorylated 18-mer)
Test: SPR

pKd: 8.68
Substance: GST-FynSH2 (SH2 domain of Fyn) (from UniProt P06241 149-246) (domain or fragment)
